In patent US20160340422A1 (published 2016):

What was measured:
Human IL-17A = Human IL-17A (human, UniProt Q16552 24-155); test: ELISA
Mouse IL-17A = molecular target: T1, Mouse IL-17A (mouse, UniProt Q62386 26-158); test: ELISA
T1 chain: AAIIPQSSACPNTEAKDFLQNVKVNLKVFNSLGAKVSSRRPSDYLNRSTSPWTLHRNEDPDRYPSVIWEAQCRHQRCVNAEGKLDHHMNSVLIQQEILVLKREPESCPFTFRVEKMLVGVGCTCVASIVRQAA

Sequence of Human IL-17A (Q16552 24-155): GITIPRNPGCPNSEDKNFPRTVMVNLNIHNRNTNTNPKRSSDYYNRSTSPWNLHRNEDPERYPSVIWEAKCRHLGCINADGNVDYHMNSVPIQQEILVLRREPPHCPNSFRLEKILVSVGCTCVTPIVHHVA

EC50 (Human IL-17A): 0.088 nM
EC50 (Mouse IL-17A): 0.088 nM
B1: Control antibody A (antibody, V domains shown)
VH: QVQLKESGPGLVQPSQTLSLTCTVSGFSLTNYYVHWVRQPPGKGLEWMGGVWNDGDTSYNSVLRSRLSITRDTSKSQVLLKMSSLQTEDTATYYCAREGREGFVGYYVMDAWGPGASVTVSS
VL: DIQMTQSPSFLSASVGERVTLSCKASQNINKYLDWFQQKLGEAPKLLIYNADNLHTGIPSRFSGSGSFSDFILTISSLQPEDDATYFCLQRESWPYTFGAGTKLELKR
